From patent CN116554322A (HEJING MEDICAL TECH SHANGHAI CO LTD, dated 2023)
Residue numbers refer to the chain shown, from its start. Names may count otherwise. Read-outs that look alike come from different tables or passages of the source. One block for each binder: values may come before it.

Columns and labels:
[1] = biological target: T1, 人IL-18Rβ蛋白 (IL-18Rβ antigen) (human); assay: SPR (Biacore 8K), Fab captured; ratio of kd, the reference itself
T1 sequence (O95256 whole entry, species assumed, looked up): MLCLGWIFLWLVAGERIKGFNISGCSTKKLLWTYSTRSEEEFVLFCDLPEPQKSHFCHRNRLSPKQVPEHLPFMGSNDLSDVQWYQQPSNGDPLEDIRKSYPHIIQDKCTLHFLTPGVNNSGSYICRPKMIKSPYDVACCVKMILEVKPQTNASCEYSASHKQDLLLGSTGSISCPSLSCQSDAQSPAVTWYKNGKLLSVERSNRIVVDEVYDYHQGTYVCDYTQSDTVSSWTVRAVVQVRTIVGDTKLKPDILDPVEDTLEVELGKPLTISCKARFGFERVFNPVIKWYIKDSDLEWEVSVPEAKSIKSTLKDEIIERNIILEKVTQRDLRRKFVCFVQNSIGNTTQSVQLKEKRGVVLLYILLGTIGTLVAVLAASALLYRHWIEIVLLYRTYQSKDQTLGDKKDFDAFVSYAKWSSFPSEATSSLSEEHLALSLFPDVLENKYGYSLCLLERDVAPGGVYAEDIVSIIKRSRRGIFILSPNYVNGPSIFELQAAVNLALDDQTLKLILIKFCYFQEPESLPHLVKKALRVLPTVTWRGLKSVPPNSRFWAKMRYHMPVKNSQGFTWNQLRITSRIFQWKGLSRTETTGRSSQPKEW

[2] = biological target: T1, 人IL-18Rβ蛋白 (IL-18Rβ antigen) (human); assay: SPR (Biacore 8K), secreted Fab captured on SASA sensor, antigen injected, 1:1 fit
[3] = biological target: T2, 人IL-18Rβ蛋白 (IL-18Rβ antigen) (human); assay: SPR (Biacore 8K), Fab captured; ratio of kd of C056-WT to kd of the clone
T2 chain: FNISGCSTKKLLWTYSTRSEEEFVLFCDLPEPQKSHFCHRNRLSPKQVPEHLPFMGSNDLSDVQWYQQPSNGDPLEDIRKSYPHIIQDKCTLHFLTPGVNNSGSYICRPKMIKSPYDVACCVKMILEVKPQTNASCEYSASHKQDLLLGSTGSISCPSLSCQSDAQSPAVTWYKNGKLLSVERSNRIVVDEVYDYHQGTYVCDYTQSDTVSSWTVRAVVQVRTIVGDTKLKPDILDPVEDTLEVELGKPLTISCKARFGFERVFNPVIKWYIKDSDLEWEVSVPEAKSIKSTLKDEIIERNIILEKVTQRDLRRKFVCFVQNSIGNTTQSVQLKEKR

[4] = biological target: T2, 人IL-18Rβ蛋白 (IL-18Rβ antigen); assay: SPR (Biacore 8K), secreted Fab captured on SASA sensor, antigen injected, 1:1 fit
[5] = biological target: T3, IL-18Rβ on KG-1 cells and human PBMC (human, UniProt O95256 20-599); assay: cell-based or functional assay
T3 sequence (looked up): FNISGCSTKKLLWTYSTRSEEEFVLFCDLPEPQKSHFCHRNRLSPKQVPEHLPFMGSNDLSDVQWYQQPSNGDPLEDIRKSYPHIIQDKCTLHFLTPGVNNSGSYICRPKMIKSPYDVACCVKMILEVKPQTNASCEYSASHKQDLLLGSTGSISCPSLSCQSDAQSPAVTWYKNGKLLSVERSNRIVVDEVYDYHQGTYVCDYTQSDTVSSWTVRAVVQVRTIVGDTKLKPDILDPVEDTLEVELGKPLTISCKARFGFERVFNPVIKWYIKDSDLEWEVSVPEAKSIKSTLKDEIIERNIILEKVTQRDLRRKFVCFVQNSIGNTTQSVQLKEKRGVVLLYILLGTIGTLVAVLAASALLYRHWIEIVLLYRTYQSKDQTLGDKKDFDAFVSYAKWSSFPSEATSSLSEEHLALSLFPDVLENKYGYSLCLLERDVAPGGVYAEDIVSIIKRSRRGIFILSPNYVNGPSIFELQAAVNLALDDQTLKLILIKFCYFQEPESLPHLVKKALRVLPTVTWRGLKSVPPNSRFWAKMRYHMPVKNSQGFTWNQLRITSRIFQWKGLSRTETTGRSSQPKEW

[6] = biological target: T1, 人IL-18Rβ蛋白 (IL-18Rβ antigen) (human); assay: SPR (Biacore 8K), antibody captured on protein A chip, human IL-18Rβ 6.25-400 nM injected, 25°C

B2: A036 Fab clone (Fab, V domains shown)
VH: EVQLVESGGGLVQPGGSLRLSCAASGINLYYSSMHWVRQAPGKGLEWVASIYSSNGRTYYADSVKGRFTISADTSKNTAYLQMNSLRAEDTAVYYCARASFSHGYGWYGLDYWGQGTLVTVSS
VL: DIQMTQSPSSLSASVGDRVTITCRASQSVSSAVDWYQQKPGKAPKLLIYSASSLYSGVPSRFSGSRSGTDFTLTISSLQPEDFATYYCQQYGYHDAGLITFGQGTKVEIK
比值(kd) [3]: 17.2
Kd [4]: 648 pM
koff [4]: 6.91e-05 s⁻¹
kon [4]: 107000 M⁻¹ s⁻¹

B3: A037 full-length IgG (antibody, V domains shown)
VH: B2 VH with I27L, A99S
VL: B2 VL with S31F
IC50(nM), inhibition of IL-18-stimulated IFN-γ release in KG-1 cells [5]: 0.27 nM
potency relative to WT antibody, KG-1 IFN-γ assay [5]: ~20 fold

B4: A035 Fab clone (Fab, V domains shown)
VH: B2 VH
VL: B2 VL with S31F, D34E
notes: Mutations against C056-WT: VL-S31F/VL-A34E/VH-F27I/VH-S99A
比值(kd) [3]: 37.3
Kd [4]: 224 pM
koff [4]: 3.19e-05 s⁻¹
kon [4]: 143000 M⁻¹ s⁻¹

B5: A038 Fab clone (Fab, V domains shown)
VH: B2 VH with A99S
VL: B2 VL with D34E
notes: Mutations against C056-WT: VL-A34E/VH-F27I
比值(kd) [3]: 21
Kd [4]: 725 pM
koff [4]: 5.67e-05 s⁻¹
kon [4]: 78200 M⁻¹ s⁻¹

B7: A039 Fab clone (Fab, V domains shown)
VH: B2 VH with A99S
VL: B2 VL
notes: Mutations against C056-WT: VL-A34D/VH-F27I
比值(kd) [3]: 39.7
Kd [4]: 260 pM
koff [4]: 3e-05 s⁻¹
kon [4]: 115000 M⁻¹ s⁻¹

B12: A035 full-length IgG (antibody, V domains shown)
VH: B2 VH
VL: B2 VL with S31F, D34E
IC50(nM), inhibition of IL-18-stimulated IFN-γ release in KG-1 cells [5]: 0.26 nM
potency relative to WT antibody, KG-1 IFN-γ assay [5]: ~20 fold

B13: A037 Fab clone (Fab, V domains shown)
VH: B2 VH with I27L, A99S
VL: B2 VL with S31F
notes: Mutations against C056-WT: VL-S31F/VL-A34D/VH-F27L
比值(kd) [3]: 1190
Kd [4]: 8.47 pM
koff [4]: 1e-06 s⁻¹
kon [4]: 118000 M⁻¹ s⁻¹

Results, then the binder that gave them:

比值(kd) [1]: 1
Kd [2]: 17800 pM
koff [2]: 0.00119 s⁻¹
kon [2]: 66600 M⁻¹ s⁻¹
B1: C056-WT Fab (wild-type anti-IL-18Rβ antibody) (Fab, V domains shown)
VH: B2 VH with I27F, A99S
VL: B2 VL with D34A

比值(kd) [3]: 18.7
Kd [4]: 415 pM
koff [4]: 6.35e-05 s⁻¹
kon [4]: 153000 M⁻¹ s⁻¹
B6: A041 Fab clone (Fab, V domains shown)
VH: B2 VH with I27V
VL: B2 VL with S31F

比值(kd) [3]: 14.9
Kd [4]: 1040 pM
koff [4]: 8e-05 s⁻¹
kon [4]: 77000 M⁻¹ s⁻¹
B8: A040 Fab clone (Fab, V domains shown)
VH: B2 VH with I27L, A99S
VL: B2 VL with D34E

IC50(nM), inhibition of IL-18-stimulated IFN-γ release in KG-1 cells [5]: 8.14 nM
Kd [6]: 15800 pM
B9: C056-WT full-length antibody (parental antibody WT) (antibody, V domains shown)
VH: B2 VH with I27F, A99S
VL: B2 VL with D34A

比值(kd) [3]: 11.2
Kd [4]: 1340 pM
koff [4]: 0.000106 s⁻¹
kon [4]: 79000 M⁻¹ s⁻¹
B10: A042 Fab clone (Fab, V domains shown)
VH: B2 VH with I27L
VL: B2 VL with D34E

IC50(nM), inhibition of IL-18-stimulated IFN-γ release in KG-1 cells [5]: 0.59 nM
potency relative to WT antibody, KG-1 IFN-γ assay [5]: ~20 fold
B11: A039 full-length IgG (antibody, V domains shown)
VH: B2 VH with A99S
VL: B2 VL
